Test results reported in paper doi:10.1101/2024.03.03.583237 (bioRxiv, 2024).

Target: SARS-CoV-2 spike trimer (soluble S-trimer) (SARS-CoV-2 Wuhan-Hu-1 (NC_045512), UniProt P0DTC2)
Assay: live-cell binding assay

B1: S2L20-CVR (scFv, V domains shown)
VH: EVQLVESGGGVVQPGGSLRLSCAASGFTFNSYGMHWVRQAPGKGLEWVAFIRYDGGNKYYADSVKGRFTISRDNSKNTLYLQMKSLRAEDTAVYYCANLKDSRYSGSYYDYWGQGTLVTVS
VL: not shown
**Q.** Does B1 bind?
**A.** binds
